Data taken from patent US20110306550A1.

Target: cellular receptor for the apoE peptide (not named), on cells
Experiment: competition binding on cells (250,000 cells per well, 4 C); competitor/tracer biotinylated apoE 133-149, detected with 125I-streptavidin

- IC50: 4 µM
B1: COG133 (apoE 133-149 peptide), unlabeled (peptide)
peptide: LRVRLASHLRKLRKRLL
